# According to the RNAGym collection of RNA variant scans (doi:10.1073/pnas.2313332121):
# B1: TPR t1 (parent)
# chain: GACCAAUCUGCCCUCAGAGCUCGAGAACAUCUUCGGAUGCAGAGGAGGCAGGCUUCGGUGGCGCGAUAGCGCCAACGUCCUCAACCUCCAAUGCAUCCCACCACAUGAUGAUGCCUGAAGAGCCUUGGUUUUUUG
# Variants of: B1
# Assay: polymerase ribozyme fitness, log enrichment relative to wild type (log ratio); higher = more active; in vitro selection for triplet polymerase activity
# Outline: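 Input and output libraries were sequenced on Illumina after a single in vitro selection round, run in triplicate on PCR-built, transcribed mutant libraries of each subunit of a heterodimeric triplet polymerase ribozyme. Selection annealed libraries to a biotinylated primer, the partner subunit and triplets, incubated them frozen at −7 °C, then gel-excised extended constructs for streptavidin-bead capture and RT-PCR. Genotypes with ≥10 input reads and ≥1 read per output were kept. Fitness is the logarithm, taken in base 2, of genotype enrichment divided by wild-type enrichment, using inverse-variance-weighted replicate averages.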
row,Variant,polymerase ribozyme fitness (log ratio)
1,G44U G48U,-2.5
2,G23U A26C A43U G93A G117C,-7.04
3,G69C A83G,-2.31
4,U38A G61C,-2.48
5,A43U U106A A108U U112A,-2.46
6,C64U U81G,-4.28
7,C4U G60U U92A U96C,-3.48
8,C13G A16G U21A A29C A43U G69U C82G C114U,-4.09
9,A41U C124U,0.983
10,C34A C70G C72G C82G,-6.51
11,A2U A50U A95C C124A U125A,-2.49
12,A27U C72U A83U,-3.67
13,U32C U92A U96C U132A,-2.97
14,A27G G120C,-0.195
15,C28G A84U A103U G110C,-4.22
16,G42A C70A,-4.1
17,A27G U38A A83C,-2.58
18,C34U A46U C56G C72U G120C,-5.35
19,C70U C85A C94U U112C,-0.466
20,C73U C88U U125G,-1.1
21,A27U G47A C49U U96A A119U,-5.56
22,C12U G17C C72G C82G U112C C123U U131C,-3.8
23,C53A G63U C82A A83C U96C,-3.55
24,C70A C72U U92G G120U,-6

row,Variant,polymerase ribozyme fitness (log ratio)
1,C89A C104A,-4.02
2,A18C G36C G57U,-4.25
3,G36A A111G,-3.41
4,C12G A29U,-1.54
5,C53U C72A U81G G120A U129A,-1.13
6,G63A C123A,-0.259
7,A46U A84C C104A G128U,-4.76
8,C11A C56G,-1.77
9,A24C C86U G110A,-5.7
10,A16G G57C C98U U112A G128C,-5.3
11,C13G G60A,-1.21
12,U78A A95U,-0.329
13,G10A C11G A27U G60A U78G C82A G93A A105G U109G,-6.59
14,C3G U78A,-2.46
15,C8A A29U U55G,-1.42
16,C3U U92A,-2.91
17,C12G A37G,0.106
18,G47A U96A U126C,-3.31
19,C56U C73U C88G,-1.95
20,C70U G77U C94A U116C A121C,-2.35
21,A46U G48A G52C G61A G120A,-1.18
22,A26C G39C C56A A100G U112C,-7.51
23,G69A C79U C80U,-6.55
24,C12U G42A G61A G110A,-4.38

row,Variant,polymerase ribozyme fitness (log ratio)
1,A6C U14G C94U C101G,-4.26
2,A68G C102A,-6.51
3,C62G U78C C79G A111G,-3.51
4,A24U A37G A108G G110U A121C,-6.34
5,C53A G128A,-1.61
6,G47U G48C,-1.51
7,C20U G122A,-2.04
8,U54A C104U C114G C115U,-5.34
9,A41U U112A,-0.325
10,U116G A121G,-0.679
11,G48U G61C U78G C98U,-5.49
12,G71A A83C G93C A118G,-2.9
13,C12G G17C U87G C97A C123G,-6.84
14,A5U U9G G36A G39A U96G,-5.14
15,C8U U78A,0.175
16,C53U U54C A90G G122A,-0.961
17,C15U C72G A100U U130A,-2.29
18,C73U C94U U129A,-1.17
19,G47U G127U,-2.57
20,C8U A50U G69U,-0.24
21,C97G G107C A111U,-7.12
22,U21C C73A C89A,-2.96
23,C8G C40A C98U G127C,-2.67
24,C56U C72U G120C G127A U134C,-1.5

row,Variant,polymerase ribozyme fitness (log ratio)
1,A26U C102A,-5.29
2,A75U C99U G120U,-4.3
3,U9G C11G C40U,-4.28
4,C40U A50U G52U U87A C102A U106A A118G,-7.38
5,A5C U112C,0.655
6,G10C C11G C20U A43U C72U,-2.23
7,G10U U30C,-2.43
8,A16G G48C G60A,-1.87
9,A2C C4A U9G C12G C104U U116C U133A,0.375
10,C4U G71U C97U C123A,0.307
11,G36U C123G U131G,0.0423
12,G17A C98U,-5.09
13,C114U U132A,-1.1
14,A37G C64U U78C C86G,-4.56
15,G52A C72A,0.151
16,C88U A118G,0.0785
17,U38G G58U G63C G113C G135C,-4.03
18,U129C U134G,1.11
19,G47C U81G,-3.84
20,G60U C89U U106A,-0.38
21,C56U C79A,-0.918
22,A29C G60U U87C,-2.47
23,C13U C114A,-1.07
24,C80A C94U,-2.69

row,Variant,polymerase ribozyme fitness (log ratio)
1,C3A C53A G57A C70A A95C G117C,-5.27
2,C4G C8G U81A A111C,-2.27
3,C31U A84C C97A A121U,-6.87
4,C31U G63C,-5.08
5,C20G G52U,-5.6
6,C4A C13U C124A,0.115
7,U59A G61U G117U,-2.27
8,C56G G77C G127C U129G,-0.438
9,G77A C102A,-2.07
10,C28G G93U A119G U129C,-4.2
11,C12U G51A,-2.09
12,C15A A26G G44U C89A G120C,-5.42
13,C115A G122U U132C,-0.273
14,C56G A68U,-6.1
15,C8A G51U,-3.89
16,G42U C73G,-2.39
17,C99U G128U,-5.25
18,G69U C88A,0.231
19,C56U C114G U131A,-2.06
20,G48A A95G U116G,-1.38
21,A46C G60C,-0.75
22,C8U G110A,0.177
23,A5U C11G,-0.477
24,A29C G45C G52A C85U,-5.05

row,Variant,polymerase ribozyme fitness (log ratio)
1,C34G A41C A100C A103C U112A,-6.4
2,U9A C12U A37G,-0.0422
3,C11G C15A A95U U130A,-2.76
4,A111U G120U,-4.5
5,G71A C115U,-1.95
6,U87C G113A U133A,-0.981
7,G117C U130A,-5.1
8,A6U G107U,-3.94
9,C28U C53G U59G,-2.35
10,U78C G135U,-1.27
11,U9A C11U C40A U134G,-0.696
12,U9C G10A G52A G63U,-2.31
13,A29C G77U U81C,-4.43
14,G71A U96G,-1.35
15,A2U A50C C70U C101U,-3.18
16,C72U C102G U133A,-5.27
17,A66C A75G,-1.09
18,C11G U59A C85A U87A,-1.45
19,C22G C56A C64U C80G C101G U130A,-5.63
20,A16U C82G U87A,-3.81
21,C15U C76G,-1.31
22,C13U G39A A91G C123A,0.557
23,C82A A111U,-3.3
24,C28G A37U,-2.45

row,Variant,polymerase ribozyme fitness (log ratio)
1,C12A G61U C79A,-1.28
2,C3A G51A,-4.19
3,C89G C97A A100U C114A,-7.31
4,C53U C76U,-0.497
5,U55A C85G C86G U112G G128A,-2.76
6,U81C C89A A111G,-2.87
7,C34A G47U G61A C86U U130A,-3.42
8,C49A C70A G120C U126C U131G,-1.57
9,U78A G110A,-1.32
10,C11U G42U,-2.17
11,A5G A18U A103U C114A G120U,-3.91
12,A29U G52U C76A C123U G135U,-3.34
13,C3A A29U G61A U130C,-1.93
14,G39C C98U G117A,-3.94
15,C82U C85A C86U C97A C124G,-5.65
16,C49A C73A U130C,0.174
17,A43C U87G,-2.73
18,A43G G69C,-2.38
19,G44U C114U U132A,-2.69
20,C76A C102A C123A,-3.55
21,G44U C56A G127C,-2.27
22,A50C C73G,-1.15
23,C53G U92C,-1.3
